Laboratory results taken from publication PMC6344859, “Structural basis for acceptor RNA substrate selectivity of the 3′ terminal uridylyl transferase Tailor”.

What was measured:
Tailor (DmTailor180-560) [1] = target: T1, Tailor (DmTailor180-560) (Drosophila melanogaster, UniProt Q9VI58 180-560); assay: crystal structure (1.85 A); two Mg2+; Crystallization conditions not in material; protein stock 20 mM HEPES pH 7.0, 150 mM KCl, 2 mM MgCl2, 1 mM DTT; conditions: protein: recombinant; tags: none after TEV cleavage (His6-MBP removed); single strand
T1 sequence (Q9VI58 180-560): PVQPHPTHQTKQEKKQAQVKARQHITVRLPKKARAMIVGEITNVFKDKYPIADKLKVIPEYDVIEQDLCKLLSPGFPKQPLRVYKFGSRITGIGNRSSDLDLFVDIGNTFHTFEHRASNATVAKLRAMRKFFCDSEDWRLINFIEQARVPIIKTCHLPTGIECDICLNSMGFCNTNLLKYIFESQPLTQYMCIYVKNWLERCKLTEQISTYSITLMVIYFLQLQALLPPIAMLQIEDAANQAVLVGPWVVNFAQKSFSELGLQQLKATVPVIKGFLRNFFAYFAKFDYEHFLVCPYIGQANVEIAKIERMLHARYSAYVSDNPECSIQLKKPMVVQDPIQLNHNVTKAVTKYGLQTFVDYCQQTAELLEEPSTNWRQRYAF

Tailor (DmTailor180-560) [2] = target: T1, Tailor (DmTailor180-560); assay: crystal structure (2.0 A); two Mg2+; Crystallization conditions not in material; protein stock 20 mM HEPES pH 7.0, 150 mM KCl, 2 mM MgCl2, 1 mM DTT; conditions: protein: recombinant; tags: none after TEV cleavage (His6-MBP removed); single strand

Row | Binder | binding result (Tailor (DmTailor180-560) [1]) | binding result (Tailor (DmTailor180-560) [2])
1 | CACAGU (ssRNA) | binds | –
2 | UUUUUU (ssRNA) [U6] | – | binds
